Data reported in patent US20100273979A1 (Affibody, published 2010).

Target: T1, rat serum albumin (rat, UniProt P02770 25-608)
T1 construct: Control coat in the screening ELISA; also called RSA
Assay: method not stated (unpublished results); unpublished results; method and construct not stated

T1 sequence (P02770 25-608 limits assumed): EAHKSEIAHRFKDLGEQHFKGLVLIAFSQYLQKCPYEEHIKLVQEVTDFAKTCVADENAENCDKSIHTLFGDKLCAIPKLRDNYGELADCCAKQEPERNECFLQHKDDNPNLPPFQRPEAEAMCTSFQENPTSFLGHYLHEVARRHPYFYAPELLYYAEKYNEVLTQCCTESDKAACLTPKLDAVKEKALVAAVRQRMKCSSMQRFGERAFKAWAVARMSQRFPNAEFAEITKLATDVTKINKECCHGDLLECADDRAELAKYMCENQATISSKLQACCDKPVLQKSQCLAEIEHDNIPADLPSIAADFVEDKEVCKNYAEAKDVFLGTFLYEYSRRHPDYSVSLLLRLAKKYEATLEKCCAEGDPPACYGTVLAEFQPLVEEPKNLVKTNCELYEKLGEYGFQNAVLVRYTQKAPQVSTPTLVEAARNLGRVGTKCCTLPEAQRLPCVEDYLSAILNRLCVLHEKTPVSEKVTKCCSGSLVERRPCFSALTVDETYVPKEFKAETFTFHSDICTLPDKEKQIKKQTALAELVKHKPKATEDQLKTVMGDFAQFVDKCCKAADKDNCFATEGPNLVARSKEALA

## LAEAKVLANRELDKYGVSDYYKNLINNAKTVEGVKALIDEILAALP (other) [ABDwt (construct not stated; unpublished results)]
  Kd: 0.07 nM
